Target: Recombinant SARS-CoV-2 RBD (residues R319–F541) (SARS-CoV-2, UniProt P0DTC2)
Experiment: SPR
Conditions: both partners purified

B1: REGN10987 (class III) (antibody, V domains shown)
VH: QVQLVESGGGVVQPGRSLRLSCAASGFTFSNYAMYWVRQAPGKGLEWVAVISYDGSNKYYADSVKGRFTISRDNSKNTLYLQMNSLRTEDTAVYYCASGSDYGDYLLVYWGQGTLVTVSS
VL: QSALTQPASVSGSPGQSITISCTGTSSDVGGYNYVSWYQQHPGKAPKLMIYDVSKRPSGVSNRFSGSKSGNTASLTISGLQSEDEADYYCNSLTSISTWVFGGGTKLTVL
- Kd: < 10 pM

— article PMC8710476 (Frontiers in Immunology, 2021)
